Assay results reported in publication PMC9497064, “Model of the SARS-CoV-2 Virus for Development of a DNA-Modified, Surface-Enhanced Raman Spectroscopy Sensor with a Novel Hybrid Plasmonic Platform in Sandwich Mode”.

Tests used:
[1] = target: T1, RBD on Ag nanoparticles (RBD NP) (SARS-CoV-2 (Wuhan strain), UniProt P0DTC2 319-541); test: SERS sandwich; BLI ([…]; BLI ([…], room temperature; […]
[2] = target: T1, RBD on Ag nanoparticles (RBD NP); test: BLI; BLI ([…]; BLI ([…], room temperature; […]

B1: Found-SH (ssDNA)
DNA: CACCGCTTTTGCCTTTTGGGGACGGATATAGGGAAACACGATAGAATCCGAACAGCACC
binding result [1]: binds

B2: RBD-1C (biotinylated) (ssDNA)
DNA: CAGCACCGACCTTGTGCTTTGGGAGTGCTGGTCCAAGGGCGTTAATGGACA
binding result [2]: binds

B3: RBD-1C-Cy3 (ssDNA)
DNA: CAGCACCGACCTTGTGCTTTGGGAGTGCTGGTCCAAGGGCGTTAATGGACA
binding result [1]: binds
